Molecular target: HLA-A*02:01
Test: IEDB peptide-MHC binding, purified MHC/competitive/radioactivity; ≥ and ≤ were set here for values at or beyond the usual limits of such assays
[1] = source organism: Vaccinia virus WR
[2] = source organism: Mammarenavirus choriomeningitidis
[3] = source organism: Mammarenavirus whitewaterense
[4] = source organism: Mammarenavirus machupoense

| Sequence | IC50 [1] | other results |
| --- | --- | --- |
| SIRLELVNLI | 2170 nM |  |
| ILTLDIFYL | 1.3 nM |  |
| FVFRSPFIVI | 170 nM |  |
| ALQNVMISI | 440 nM |  |
| YAVTKTDGI | 3060 nM |  |
| IVLYNGVNYL | 225 nM |  |
| RTNEEFDPV | 140 nM |  |
| HLPTMYDGL | 1090 nM |  |
| YMMGIEYGL | 0.12 nM |  |
| LAKAIITPVV | 2360 nM |  |
| QMTSTFIML | 420 nM |  |
| EATYHIIIVA | 2120 nM |  |
| SLVEMMWDL | 11 nM |  |
| RLNPEVSYFT | 128 nM |  |
| LLSQYLSRV | 1 nM |  |
| KINPTLDNI | 244 nM |  |
| LILSLTCSV | 1.3 nM |  |
| FMASPENVIL | 1070 nM |  |
| NLNQVIQSV |  | IC50 [2]: 28 nM |
| VIVIYIFTV | 104 nM |  |
| TMVDKPTEL | 185 nM |  |
| LLLDYMTST | 7 nM |  |
| CVLTTIDGV | 293 nM |  |
| YASIINRDI | 2230 nM |  |
| YLLSLFSTLV | 0.32 nM |  |
| GLIYSMEFT | 1220 nM |  |

| Sequence | IC50 [1] | other results |
| --- | --- | --- |
| NVDSTDELM | 1940 nM |  |
| IIDKDTNSV | 62 nM |  |
| FILIFNIIV | 3.2 nM |  |
| TIIFVLISI | 1180 nM |  |
| MTLSCNGET | 1940 nM |  |
| SMITMSAFL | 20 nM |  |
| ELIAFSSGTV | 997 nM |  |
| LIQEIVHEV | 33 nM |  |
| NLATSIYTI | 1.2 nM |  |
| YQYIFLSFFA | 19 nM |  |
| MIYGLIACL | 8.5 nM |  |
| FIKGFLYHT | 1320 nM |  |
| SLSKQDISL | 67 nM |  |
| VLLTYFCFV | 0.28 nM |  |
| FIDTVSVYT | 231 nM |  |
| YIIRVTTEL | 36 nM |  |
| CVLPAVVYST | 303 nM |  |
| KLLISKGIEI | 132 nM |  |
| IQAKTKNFTI | 4230 nM |  |
| MLFVNDLMT | 747 nM |  |
| QLFSFFEEV |  | IC50 (source organism: Mammarenavirus brazilense): 12 nM |
| QLMWALGENMA |  | IC50 (source organism: Influenza A virus): 848 nM |
| ALPHIIDEV |  | IC50 [2]: 57 nM |
| GLYCYFTHL | 5.4 nM |  |
| AIFTDASTV | 697 nM |  |
| TLDTAIFTDA | 50 nM |  |

| Sequence | IC50 [1] | other results |
| --- | --- | --- |
| FLPIIFDAFL | 0.22 nM |  |
| DALATFTVNI | 178 nM |  |
| PMLYQLLEAV | 1090 nM |  |
| FIILLLAIV | 596 nM |  |
| RVETSPRPT | 1960 nM |  |
| SLLVAPMPT | 935 nM |  |
| SLLDEDSKI | 99 nM |  |
| QLDMIITAV |  | IC50 [3]: 57 nM |
| GLDVKNVQLV | 313 nM |  |
| SLSSIRFHI | 11 nM |  |
| DTWGSDGNPI | 1150 nM |  |
| SLMDMITLSL | 0.59 nM |  |
| YIIRYPVKRI | 1020 nM |  |
| LLSLLVIWIL | 112 nM |  |
| FVLVDNVDFA | 75 nM |  |
| ALFGIKLPAL | 2.5 nM |  |
| MTPSPFYTV | 6.4 nM |  |
| SMIGLCACV | 2 nM |  |
| FQYLLPGFVL | 37 nM |  |
| RVNVFETRI | 1960 nM |  |
| STFIMLEGET | 3480 nM |  |
| YMSFWCKSI | 26 nM |  |
| SLEATYHIII | 4980 nM |  |
| TMNSVVQAL |  | IC50 [4]: 1250 nM |
| FIEHLGEGI | 4820 nM |  |
| GLSGDSERV | 626 nM |  |

| Sequence | IC50 [1] | other results |
| --- | --- | --- |
| TLAPFNFLV | 0.22 nM |  |
| YTDSIQDLL | 933 nM |  |
| ILSAVAIFCI | 13 nM |  |
| CMSANEAAI | 16 nM |  |
| VLSYVIGLL |  | IC50 [4]: 210 nM |
| IILAISALL | 12 nM |  |
| FTPQIICGNV |  | IC50 [3]: 972 nM |
| GLCIRISMVI | 2040 nM |  |
| LVDNVDFAT | 461 nM |  |
| LQISQCQRI | 1370 nM |  |
| YLYETYHLI | 2.4 nM |  |
| KLTFLDVEV | 93 nM |  |
| FIGYMVKNV | 443 nM |  |
| GLDLENLYA | 117 nM |  |
| SMICLSLILA | 101 nM |  |
| FIALWIPDL | 1.7 nM |  |
| ALATFTVNI | 0.6 nM |  |
| ALLSRFFNM | 0.61 nM |  |
| WLTSILLSL | 1.2 nM |  |
| VLYDEFKCFI | 5.9 nM |  |
| LLSLFSTLV | 12 nM |  |
| SMDTLLFFL | 1 nM |  |
| KLYLVDYGLV | 20 nM |  |
| FAALGGSVNI | 3730 nM |  |
| SIDQKKSYV | 188 nM |  |
| FQFFVFLAL |  | IC50 (source organism: Mammarenavirus juninense): 675 nM |

| Sequence | IC50 [1] | other results |
| --- | --- | --- |
| WLIGFDFDV | 0.06 nM |  |
| YTINCLLYI | 5.1 nM |  |
| RTLLGLILFV | 20 nM |  |
| KMCTVSDYI | 36 nM |  |
| SLLRKFLYCI | 338 nM |  |
| MLNGIMYRL | 0.35 nM |  |
| LLIHFLLSL | 17 nM |  |
| FLCLLMKLSI | 2.1 nM |  |
| TLFDDELYSI | 1.1 nM |  |
| HMNEIRINI | 670 nM |  |
| ILMDNKGLGV | 1.3 nM |  |
| FLIVRLNQCM | 34 nM |  |
| TMLSIILVII | 154 nM |  |
| LVDICDRIV | 2140 nM |  |
| SLNRTIVTKV | 67 nM |  |
| RVYKTIWEI | 285 nM |  |
| EVVDMLSTYL | 1780 nM |  |
| FLAVLSPTI | 0.66 nM |  |
| ILMYPTTLL | 7 nM |  |
| KTMAVTYEL | 0.4 nM |  |
| IIIPFIAYFV | 1.2 nM |  |
| GLVDVCFWST |  | IC50 [3]: 71 nM |
| PAVVYSTCTV | 2310 nM |  |
| HQWDIDSAI | 1010 nM |  |
| KLFLIKKMA | 1070 nM |  |
| KTSTLIFFV | 1 nM |  |
